The supplement of paper PMC9112550, “Optimization of the antimicrobial peptide Bac7 by deep mutational scanning” (BMC Biology, 2022)

Tested on: Escherichia coli TOP10
Assay: shrunken log2 fold change of peptide-encoding DNA abundance (4.5 h post-induction vs induction); higher = less antimicrobial activity (less host growth inhibition)
Conditions: time post-induction: 4.5 h; library: site-saturation at positions 5, 18, 19, 20
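Further: peptides expressed intracellularly from a pBAD plasmid library in pooled LB shake-flask culture, induced with 0.3% L-arabinose, DNA abundance read by NGS, three biological replicates, DESeq2 with apeglm shrinkage.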

Row | Sequence | shrunken log2 fold change
1 | RRIRKRPPRLPRPRPRPMVPPRP | -0.043
2 | RRIRQRPPRLPRPRPRPPREPRP | 0.655
3 | RRIRYRPPRLPRPRPRPQYVPRP | -0.0294
4 | RRIRNRPPRLPRPRPRPKLPPRP | 0.0992
5 | RRIRKRPPRLPRPRPRPEIHPRP | 0.27
6 | RRIRIRPPRLPRPRPRPITYPRP | -0.323
7 | RRIRGRPPRLPRPRPRPRFYPRP | 0.189
8 | RRIRTRPPRLPRPRPRPRFWPRP | 0.0622
9 | RRIRSRPPRLPRPRPRPNHNPRP | -0.784
10 | RRIRIRPPRLPRPRPRPHQVPRP | -0.614
11 | RRIRHRPPRLPRPRPRPNYEPRP | -0.586
12 | RRIRPRPPRLPRPRPRPFPDPRP | 0.00657
13 | RRIRLRPPRLPRPRPRPQKPPRP | -0.272
14 | RRIRCRPPRLPRPRPRPQEKPRP | 0.0587
15 | RRIRSRPPRLPRPRPRPSVDPRP | 0.0566
16 | RRIRCRPPRLPRPRPRPTGRPRP | 0.238
17 | RRIRDRPPRLPRPRPRPQHKPRP | -0.217
18 | RRIRPRPPRLPRPRPRPWAAPRP | 0.126
19 | RRIRGRPPRLPRPRPRPWMNPRP | 0.106
20 | RRIRCRPPRLPRPRPRPDHSPRP | -0.184
21 | RRIRCRPPRLPRPRPRPYEKPRP | -0.0213
22 | RRIRARPPRLPRPRPRPLPGPRP | 0.467

Row | Sequence | shrunken log2 fold change
23 | RRIRQRPPRLPRPRPRPHFSPRP | -0.508
24 | RRIRRRPPRLPRPRPRPKFPPRP | 0.361
25 | RRIRHRPPRLPRPRPRPDNNPRP | -0.453
26 | RRIRIRPPRLPRPRPRPGGPPRP | 0.0365
27 | RRIRIRPPRLPRPRPRPYIEPRP | -0.266
28 | RRIRFRPPRLPRPRPRPGFAPRP | 0.374
29 | RRIRMRPPRLPRPRPRPWSMPRP | -0.156
30 | RRIRPRPPRLPRPRPRPVRNPRP | 0.22
31 | RRIRKRPPRLPRPRPRPEWTPRP | 0.0364
32 | RRIRERPPRLPRPRPRPHHLPRP | -0.143
33 | RRIRCRPPRLPRPRPRPWLFPRP | -0.179
34 | RRIRVRPPRLPRPRPRPVCYPRP | 0.0382
35 | RRIRMRPPRLPRPRPRPPNPPRP | 0.822
36 | RRIRQRPPRLPRPRPRPTAAPRP | 0.933
37 | RRIRRRPPRLPRPRPRPHDRPRP | 0.103
38 | RRIRLRPPRLPRPRPRPRQHPRP | -0.0111
39 | RRIRHRPPRLPRPRPRPTRIPRP | -0.0296
40 | RRIRGRPPRLPRPRPRPNVDPRP | 0.715
41 | RRIRKRPPRLPRPRPRPPLKPRP | 0.419
42 | RRIRWRPPRLPRPRPRPTHEPRP | 0.219
43 | RRIRIRPPRLPRPRPRPHGIPRP | -0.0115
44 | RRIRYRPPRLPRPRPRPETKPRP | -0.485

Row | Sequence | shrunken log2 fold change
45 | RRIRCRPPRLPRPRPRPDADPRP | 0.472
46 | RRIRPRPPRLPRPRPRPALQPRP | 0.0721
47 | RRIRRRPPRLPRPRPRPYSEPRP | -0.154
48 | RRIRHRPPRLPRPRPRPIRRPRP | 0.0591
49 | RRIRARPPRLPRPRPRPMHTPRP | 0.261
50 | RRIRIRPPRLPRPRPRPNYNPRP | -1.12
51 | RRIRIRPPRLPRPRPRPLSLPRP | -0.868
52 | RRIRFRPPRLPRPRPRPKRHPRP | 0.134
53 | RRIRGRPPRLPRPRPRPPHMPRP | 0.489
54 | RRIRWRPPRLPRPRPRPRYIPRP | -0.665
55 | RRIRERPPRLPRPRPRPEAWPRP | 0.0366
56 | RRIRGRPPRLPRPRPRPQIFPRP | -0.0563
57 | RRIRIRPPRLPRPRPRPNYTPRP | -0.516
58 | RRIRMRPPRLPRPRPRPFVKPRP | -1.03
59 | RRIRTRPPRLPRPRPRPFAEPRP | 0.0116
60 | RRIRCRPPRLPRPRPRPKCVPRP | -0.0957
61 | RRIRTRPPRLPRPRPRPVYCPRP | -0.301
62 | RRIRLRPPRLPRPRPRPQMDPRP | -0.16
63 | RRIRCRPPRLPRPRPRPWPMPRP | 0.168
64 | RRIRRRPPRLPRPRPRPYRKPRP | 0.0779
65 | RRIRVRPPRLPRPRPRPPCRPRP | 2.01
66 | RRIRFRPPRLPRPRPRPIENPRP | -0.193

Row | Sequence | shrunken log2 fold change
67 | RRIRIRPPRLPRPRPRPQDKPRP | -0.855
68 | RRIRPRPPRLPRPRPRPCDGPRP | 0.0661
69 | RRIRNRPPRLPRPRPRPTPCPRP | 0.043
70 | RRIRGRPPRLPRPRPRPEKNPRP | 0.921
71 | RRIRKRPPRLPRPRPRPQNHPRP | 2.37
72 | RRIRQRPPRLPRPRPRPLKTPRP | 0.0342
73 | RRIRMRPPRLPRPRPRPFPFPRP | -0.356
74 | RRIRDRPPRLPRPRPRPYYTPRP | -0.817
75 | RRIRTRPPRLPRPRPRPWYMPRP | -0.0891
76 | RRIRPRPPRLPRPRPRPCTMPRP | -0.191
77 | RRIRKRPPRLPRPRPRPESHPRP | -0.00766
78 | RRIRWRPPRLPRPRPRPFRMPRP | -0.122
79 | RRIRMRPPRLPRPRPRPCGGPRP | 1.19
80 | RRIRDRPPRLPRPRPRPPGVPRP | 0.127
81 | RRIRLRPPRLPRPRPRPHYHPRP | -1.26
82 | RRIRDRPPRLPRPRPRPDPQPRP | 0.209
83 | RRIRHRPPRLPRPRPRPKFIPRP | -0.192
84 | RRIRWRPPRLPRPRPRPCLIPRP | -0.151
85 | RRIRCRPPRLPRPRPRPGDFPRP | -0.0027
86 | RRIRMRPPRLPRPRPRPAPWPRP | 0.807
87 | RRIRWRPPRLPRPRPRPTACPRP | 0.317
88 | RRIRARPPRLPRPRPRPVDEPRP | 0.33

Row | Sequence | shrunken log2 fold change
89 | RRIRRRPPRLPRPRPRPNPCPRP | 0.0776
90 | RRIRQRPPRLPRPRPRPHRIPRP | -0.0425
91 | RRIRTRPPRLPRPRPRPNHFPRP | -0.316
92 | RRIRTRPPRLPRPRPRPFDFPRP | -0.271
93 | RRIRLRPPRLPRPRPRPNGWPRP | 0.044
94 | RRIRCRPPRLPRPRPRPEIPPRP | 0.0317
95 | RRIRMRPPRLPRPRPRPRLDPRP | 0.897
96 | RRIRERPPRLPRPRPRPTWPPRP | 0.219
97 | RRIRRRPPRLPRPRPRPIAKPRP | 0.252
98 | RRIRPRPPRLPRPRPRPHWLPRP | -0.0232
99 | RRIRCRPPRLPRPRPRPQSVPRP | -0.125
100 | RRIRGRPPRLPRPRPRPFGVPRP | 0.446
101 | RRIRVRPPRLPRPRPRPEICPRP | 0.2
102 | RRIRVRPPRLPRPRPRPNSMPRP | -0.575
103 | RRIRDRPPRLPRPRPRPCSAPRP | 0.45
104 | RRIRMRPPRLPRPRPRPMYEPRP | 0.221
105 | RRIRCRPPRLPRPRPRPTWQPRP | 0.288
106 | RRIRYRPPRLPRPRPRPAMEPRP | 0.0738
107 | RRIRTRPPRLPRPRPRPCAIPRP | 0.00368
108 | RRIRRRPPRLPRPRPRPNERPRP | -0.0664
109 | RRIRVRPPRLPRPRPRPPAPPRP | 0.794
